Drawing on publication doi:10.1101/829150, this text covers filamentous fraction, initial and filamentous fraction, maximum for one substance.

For this assay, the target named is Chicken gizzard actin (chicken) (UniProt P63270). The assay is described as follows: nanopore sensing.

Substance “Chicken gizzard actin (from UniProt P63270 1-376) (natural protein)” registered a filamentous fraction, initial of 17% and a filamentous fraction, maximum of 75%.
